Test [1] deals with human IL-10 (human, UniProt P22301 19-178). The test is described as follows: BIA (surface plasmon resonance). A general note: SPR reads the build-up and loss of mass on a sensor chip optically.
The target in test [2] is T1, human IL-28A (human, UniProt Q8IZJ0 26-200).
T1 sequence (looked up): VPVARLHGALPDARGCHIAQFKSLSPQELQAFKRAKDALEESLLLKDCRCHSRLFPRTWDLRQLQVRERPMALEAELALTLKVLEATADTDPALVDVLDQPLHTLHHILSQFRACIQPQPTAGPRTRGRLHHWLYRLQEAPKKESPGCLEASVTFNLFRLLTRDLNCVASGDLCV
The test is described as follows: BIA (surface plasmon resonance).

Test [3] deals with T2, human IL-24 (human, UniProt Q13007 52-206, limits assumed).
T2 sequence (looked up): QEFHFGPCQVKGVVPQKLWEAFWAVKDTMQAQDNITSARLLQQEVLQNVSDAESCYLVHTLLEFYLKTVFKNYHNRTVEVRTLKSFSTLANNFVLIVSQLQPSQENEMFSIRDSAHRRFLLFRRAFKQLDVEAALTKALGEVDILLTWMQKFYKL
The test is described as follows: BIA (surface plasmon resonance).

The target in test [4] is T3, human IFN-ω (human, UniProt P05000 24-195).
T3 sequence (looked up): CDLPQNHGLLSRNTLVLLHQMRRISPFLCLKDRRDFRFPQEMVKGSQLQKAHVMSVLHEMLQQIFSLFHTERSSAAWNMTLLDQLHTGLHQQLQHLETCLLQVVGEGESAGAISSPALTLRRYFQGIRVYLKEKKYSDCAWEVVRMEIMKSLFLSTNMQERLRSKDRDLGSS
Put plainly: BIA (surface plasmon resonance).

Test [5] addresses T4, human IL-20 (human, UniProt Q9NYY1 25-176).
T4 sequence (looked up): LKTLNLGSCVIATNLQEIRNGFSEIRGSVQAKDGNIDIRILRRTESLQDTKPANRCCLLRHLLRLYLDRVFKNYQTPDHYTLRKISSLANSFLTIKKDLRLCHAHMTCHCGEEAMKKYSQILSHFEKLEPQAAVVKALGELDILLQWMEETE
Put plainly: BIA (surface plasmon resonance).

In test [6] the target is human IL-29 (human, UniProt Q8IU54 20-200). The test is described as follows: BIA (surface plasmon resonance).
The target of test [7] is T5, human IL-19 (human, UniProt Q9UHD0 25-177).
T5 sequence (looked up): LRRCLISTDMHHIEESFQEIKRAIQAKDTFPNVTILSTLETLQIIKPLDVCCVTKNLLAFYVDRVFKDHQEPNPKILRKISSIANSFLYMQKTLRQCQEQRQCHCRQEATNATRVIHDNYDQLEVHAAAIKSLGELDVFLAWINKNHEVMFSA
Put plainly: BIA (surface plasmon resonance).

Test [8] deals with T6, rat IL-22 (rat, UniProt G3V6X6 34-178).
T6 sequence: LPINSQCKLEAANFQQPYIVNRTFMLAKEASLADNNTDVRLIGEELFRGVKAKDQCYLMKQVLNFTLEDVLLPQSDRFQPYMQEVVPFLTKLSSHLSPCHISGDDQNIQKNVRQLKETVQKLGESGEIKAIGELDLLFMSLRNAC
Put plainly: cell-based or functional assay.

Test [9] deals with T7, human IL-22 (human, UniProt Q9GZX6 34-179).
T7 sequence: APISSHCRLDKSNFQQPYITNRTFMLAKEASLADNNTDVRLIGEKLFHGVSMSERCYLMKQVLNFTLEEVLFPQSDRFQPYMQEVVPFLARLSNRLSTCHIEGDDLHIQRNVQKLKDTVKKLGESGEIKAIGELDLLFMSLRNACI
The test is described as follows: cell-based or functional assay.

The target of test [10] is monkey IL-22 (monkey). Put plainly: cell-based or functional assay.
Test [11] has as its target T8, murine IL-22 (murine, UniProt Q9JJY9 34-179).
T8 sequence: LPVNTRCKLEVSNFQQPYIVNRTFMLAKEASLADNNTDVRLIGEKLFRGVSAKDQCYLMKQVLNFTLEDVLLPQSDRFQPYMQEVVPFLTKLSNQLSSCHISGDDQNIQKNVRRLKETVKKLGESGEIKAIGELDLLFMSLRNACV
Put plainly: cell-based or functional assay.

For test [12], the target named is T7, human IL-22. Put plainly: SPR (Biacore), antibody amine-coupled to CM5 chip, human IL-22 as analyte, 1:1 model. How it is done: To prepare the biosensor surface for the human monoclonal antibodies, either human monoclonal antibody (356A11 or 368D04) or control antibody PD-1 (#17) were immobilized onto a research-grade carboxymethyl dextran chip (CM5) using standard amine coupling. The surface was activated with EDC/NHS. The capturing antibodies were injected at a concentration of 1 μg/ml in sodium acetate buffer (pH 5.5). Remaining activated groups were blocked with 1.0 M ethanolamine (pH 8.0). The first flow cell was used as a reference surface to correct for bulk refractive index, matrix effects, and non-specific binding. The second, third, and fourth flow cells were coated with the capturing molecule.
The kinetic data were analyzed using BIAevaluation software 3.0.2 applied to a 1:1 model. The apparent dissociation (Kd) and association (Kₐ) rate constants were calculated from the appropriate regions of the sensorgrams using a global analysis. The affinity constants of the interaction between antibody and analyte were calculated from the kinetic rate constants by the following formulae: KD=Kd/Kₐ, where KD is the dissociation constant and KA=Kₐ/Kd, where KA is the association constant.

Test [13] concerns the target T6, rat IL-22. The test is described as follows: cell-based or functional assay. The source holds these as a separate data set.
The target in test [14] is T7, human IL-22. Put plainly: cell-based or functional assay. This is another data set of the same source.
In test [15] the target is monkey IL-22 (monkey). Put plainly: cell-based or functional assay. This is another data set of the same source.
The target in test [16] is T8, murine IL-22. The test is described as follows: cell-based or functional assay. This is another data set of the same source.

Chain of human IL-10 (P22301 19-178 limits assumed): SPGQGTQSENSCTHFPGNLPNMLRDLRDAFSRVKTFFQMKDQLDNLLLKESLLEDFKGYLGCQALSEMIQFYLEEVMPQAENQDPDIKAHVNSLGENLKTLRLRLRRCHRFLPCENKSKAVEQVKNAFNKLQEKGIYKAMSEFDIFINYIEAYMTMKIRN
Chain of human IL-29 (Q8IU54 20-200 limits assumed): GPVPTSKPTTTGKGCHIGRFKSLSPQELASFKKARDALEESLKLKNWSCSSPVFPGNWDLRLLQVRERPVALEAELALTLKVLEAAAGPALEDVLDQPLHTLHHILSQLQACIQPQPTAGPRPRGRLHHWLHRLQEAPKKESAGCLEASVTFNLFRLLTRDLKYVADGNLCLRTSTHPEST

B1: 356A11, human monoclonal anti-IL-22 antibody as used in Examples 10 and 11 (antibody, V domains shown)
VH: QVQLVQSGAEVKKPGASVKVSCKASGYTFTNYYMHWVRQAPGQGLEWVGWINPYTGSAFYAQKFRGRVTMTRDTSISTAYMELSRLRSDDTAVYYCAREPEKFDSDDSDVWGRGTLVTVSS
VL: QAVLTQPPSVSGAPGQRVTISCTGSSSNIGAGYGVHWYQQLPGTAPKLLIYGDSNRPSGVPDRFSGSKSGTSASLAITGLQAEDEADYYCQSYDNSLSGYVFGGGTQLTVLG
For the molecule B1, the binding result in test [1], in [2], in test [3], in test [4], in test [5] and in [6] was “no binding” throughout. The binding result in test [7] is “no binding”. Also, the “IC50 in BaF3 cell based assay” value in [8] was determined as 0.0107 nM; in test [9], 0.00357 nM; in [10], 0.00258 nM; in test [11] it was 0.00253 nM. The same molecule registered a Ka in test [12] of 1.85e+10 M⁻¹. For the same molecule, binding in test [12] was put at a Kd of 0.054 nM. The koff (in general, a measure of how fast the partners let go of each other) in [12] was determined as 4.27e-06 s⁻¹. Besides, the kon (commonly a measure of how fast the partners come together) in test [12] came to 79100 M⁻¹ s⁻¹. The “IC50 in GROa cell based assay” value in [13] was 0.211 nM; in test [14] it was 0.124 nM; in test [15], 0.0896 nM; in test [16], 0.144 nM.

Values taken from patent US20070243589A1 (Pfizer, published 2007).
